Series [1] in a line: folding stability dG unfold from trypsin proteolysis; higher = more stable. Put shortly:
(§1)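 Sequencing followed digestion of designed mini-proteins with trypsin and chymotrypsin, each at 11 concentrations in threefold dilutions together with a no-protease condition. The mini-proteins were under 80 residues, had no cysteine, sat in a PA-tagged cDNA display construct, and were kept only if AlphaFold2 dimer inter-PAE was above 15. From the counts, Bayesian fitting gave K50, and unfolding free energy was derived against a sequence-predicted unfolded-state K50 and a shared folded-state K50, per protease or combined.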

Series [2] can be described thus: folding stability dG unfold from chymotrypsin proteolysis; higher = more stable. Put shortly:
as §1

Series [3] is described as follows: folding stability dG unfold (combined trypsin and chymotrypsin); higher = more stable. Put shortly:
as §1

± gives the half width of the 95% confidence interval.

Consider “SAGGATAVIADFPLPEGTLRVAVVKKDDKPYVFVFPSGISAEELKKILEEKLGVDIKKVEVKTVSTADESAG [r5_181_TrMRF]”, for which the “folding stability dG unfold” value in series [1] was 1.11 ± 0.053 kcal/mol; in series [2] it was 2.04 ± 0.022 kcal/mol; in series [3], 1.7 ± 0.093 kcal/mol.
Taken in the same sequence, the figures for “SAGGATITLEPGTFTIEFPENELVIPVPVPEERPDVSPEEAAREIVEELREKYGLPPPEDLTVELAPSAGGS [r8_402_JUSTAS]” were 0.299 ± 0.13 kcal/mol, 0.184 ± 0.27 kcal/mol and 0.273 ± 0.22 kcal/mol.
Taken in the same sequence, the figures for “SAGGATVTVTEYPLPTGTLYRVTVTVGSKTTTFTVPPGVSLEEIKEIVEKEVGVDLTTVTTTTVSTAAASAG [r5_181_JUSTAS]” were 3.06 ± 0.14 kcal/mol, 3.83 ± 0.062 kcal/mol and 3.56 ± 0.14 kcal/mol.
Regarding “SAGGAVELRIVVRRTRPDPLTGRPVEEELTLTVPVDLDPERGVSAAEVARALAAALPDEVREVRAEPGSAGG [r13_335_TrMRF]”, the “folding stability dG unfold” value in series [1] amounted to 0.51 ± 0.17 kcal/mol; in series [2], 0.705 ± 0.08 kcal/mol; in series [3] it was 0.632 ± 0.12 kcal/mol.
Taken in the same sequence, the figures for “SAGGAVLTTEDPEKISLTFYSPEGAVLGSEEIEVEPPEIVLTNVPPEEAAAIKKENPDVPISLNPALGSAGG [r13_235_JUSTAS]” were 0.956 ± 0.03 kcal/mol, 0.456 ± 0.029 kcal/mol and 0.685 ± 0.071 kcal/mol.
Taken in the same sequence, the figures for “SAGGDEIVDRIKQAFHNFGYPVRIDDISPPNGKIYIRISPAMRENMKPAIIEIPFPGIKDITIEMWPSAGGS [r8_318_TrROS]” were 1.25 ± 0.14 kcal/mol, 1.49 ± 0.14 kcal/mol and 1.53 ± 0.17 kcal/mol.
Turning to “SAGGDIKILSIQFMPPGWIMIVAEIPLENGEKWHISIMIRITPEARNHPPGQEYEFRIDINISIVPRSAGGS [r16_787_TrROS]”, the “folding stability dG unfold” value was 3.5 ± 0.26 kcal/mol in series [1], 4.91 ± 0.41 kcal/mol in series [2] and 4.5 ± 0.32 kcal/mol in series [3].
Taken in the same sequence, the figures for “SAGGDLLKELARELGFNVEIERDPDDGTIRITIRPPEGHYVTITIKIDYDPENGKLKLEIDEIKVSPPSAGG [r13_936_TrROS]” were 3.68 ± 0.17 kcal/mol, 3.63 ± 0.14 kcal/mol and 3.7 ± 0.17 kcal/mol.
Taken in the same sequence, the figures for “SAGGDMYFVTVEIWRPREPDPDGEWKWEPIPITFPFDPDQAEDFAKEIINILQKDGYHVKIKVIPMPSAGGS [r8_10_TrROS]” were 2.56 ± 0.1 kcal/mol, 3.75 ± 0.28 kcal/mol and 3.17 ± 0.43 kcal/mol.
Taken in the same sequence, the figures for “SAGGDPPDIYVQIEHKNGKTRTIPFDNMSIENIAEELRDHNYDEVKISVFRMGKPIETFKIKIPPGDSAGGS [r16_700_TrROS]” were 3.7 ± 0.27 kcal/mol, 2.95 ± 0.15 kcal/mol and 3.08 ± 0.52 kcal/mol.
As for “SAGGDTFLMLHPHPVKDNGKDKPYYHIMVMKITEVEPDNGKPRLKMEMKMIHIPADDPDALKEAGIPISAGG [r13_670_TrROS]”, the “folding stability dG unfold” value in series [1] worked out at 1.81 ± 0.1 kcal/mol; in series [2], 1.52 ± 0.21 kcal/mol; in series [3], 1.77 ± 0.16 kcal/mol.
For “SAGGDTIMIPIRGKGSLEQAKEWAKEIAREFYREGWKNIKISVWVYDKENGEPVYRKEAEIPIKPGDSAGGS [r8_33_TrROS]”, in that order: 1.63 ± 0.11 kcal/mol, 2.14 ± 0.18 kcal/mol and 1.94 ± 0.22 kcal/mol.
Taken in the same sequence, the figures for “SAGGDVKEFDSPEDLNKALPALKNGKEVHIRVEMRMPQPDPDGEPRQYPMEFWYTIKLKNGELEIEPISAGG [r13_835_TrROS]” were 0.593 ± 0.071 kcal/mol, 0.988 ± 0.091 kcal/mol and 0.827 ± 0.07 kcal/mol.
For “SAGGDWRPVEFTIKILIPKGMTADELIEEIKEIARNLGLTIKPISVEVYPVPNKYYVEINVEIWIPPNSAGG [r13_351_TrROS]”, in that order: 2.57 ± 0.14 kcal/mol, 4.54 ± 0.19 kcal/mol and 4.17 ± 0.33 kcal/mol.
“SAGGDWRTITFNFEVDVPPGQTPEQLIEKAEEIVEELARMFPDVKIEVTDIEVDEDKVYIDVEIRVPDSAGG [r13_805_TrROS]”: the “folding stability dG unfold” value in series [1] came out at 2.6 ± 0.17 kcal/mol; in series [2], 3.45 ± 0.097 kcal/mol; in series [3] it was 3.22 ± 0.16 kcal/mol.
Taken in the same sequence, the figures for “SAGGDYWVFKIEITHRNPNGEPEKWDIFIWFDPDDPDMPAKELADWIAKYLAPNNGYEVKIEEIYPVSAGGS [r8_101_TrROS]” were 3.25 ± 0.15 kcal/mol, 5 ± 0.1 kcal/mol and 4.7 ± 0.31 kcal/mol.
Taken in the same sequence, the figures for “SAGGEDELRPITPEELKALFDRLAAAHGLESEILEVEEPEDVVIVTARIRHGDTVLEVTVAFPVAKDPSAGG [r13_652_TrMRF]” were 2.65 ± 0.14 kcal/mol, 2.97 ± 0.1 kcal/mol and 2.91 ± 0.15 kcal/mol.
Taken in the same sequence, the figures for “SAGGEDGKWREQTFTIENPEDGKKAKIEIEYNPENGYASIEFPGNGKKIDVPFKSLEDILDAIKKIGISAGG [r13_439_TrROS]” were -0.02 ± 0.074 kcal/mol, 0.0872 ± 0.16 kcal/mol and 0.0961 ± 0.12 kcal/mol.
In the case of “SAGGEEEKVVLTPEEIERLLKELAEALGLEVTITEIEVEEDYVTITVEIKVDGKTLTLTLKLRIEPEPSAGG [r13_652_TrROS_Hall]”, the results for the “folding stability dG unfold” value in series [1], in series [2] and in series [3] were 4 ± 0.42 kcal/mol, 5.23 ± 0.15 kcal/mol and 5.14 ± 0.36 kcal/mol, respectively.
Taken in the same sequence, the figures for “SAGGEEGKPKWVEMWIFIPKEILEDIKQGEPLTVKQIAQKIGFPPNIEVKIIEREGDYIYVRITIPVSAGGS [r16_679_TrROS]” were 4.53 ± 0.25 kcal/mol, 4.66 ± 0.11 kcal/mol and 4.66 ± 0.27 kcal/mol.
For “SAGGEEKEKLREAIRAALDEAIKEGKKIKKIVIVASPEKKEEIAKLLEEEGLLENLEIEVVSPEELKSAGGS [r16_164_TrROS_Hall]”, in that order: 1.74 ± 0.072 kcal/mol, 0.665 ± 0.14 kcal/mol and 1.27 ± 0.25 kcal/mol.
For “SAGGEERERIRRLVRELRRRGYKRITADELARLLGREITEEELEALREAGLIELEEEETVEVVLPEEESAGG [r13_188_TrROS_Hall]”, in that order: 4.02 ± 0.16 kcal/mol, 4.26 ± 0.085 kcal/mol and 4.15 ± 0.14 kcal/mol.
As to “SAGGEIEIDENGFIRMTLYDPATGYKIEAEFRILPDGTIEITKIKIEPLPPPPPPKVFVLDENGELVESAGG [r13_646_TrROS_Hall]”, the “folding stability dG unfold” value in series [1] came out at 3.31 ± 0.2 kcal/mol; in series [2] it was 3.1 ± 0.086 kcal/mol; in series [3] it was 2.77 ± 0.38 kcal/mol.
With “SAGGEIEVEVLEVDPETGEVLLKITFDAEPEVIDFLVSLGFDPEHISDDGDGKVTAIVRAPPDLTIASAGGS [r16_755_TrMRF]”, the results for the “folding stability dG unfold” value in series [1], in series [2] and in series [3] were 2.21 ± 0.087 kcal/mol, 3.02 ± 0.061 kcal/mol and 2.79 ± 0.09 kcal/mol, respectively.
For “SAGGEKEEIIKKLSKYPKNYRVLLKSPDGTLYEYSSPEEVIKMPLTLPNGKEVIIVKISPEKSPKLLSAGGS [r16_680_JUSTAS]”, in that order: 0.438 ± 0.091 kcal/mol, 0.836 ± 0.098 kcal/mol and 0.758 ± 0.099 kcal/mol.
For “SAGGEKKVLIVKVEIKLINNGGEFEAEFVFPEDVTLEEILAKVKELLPPGAKAEIKIKEIKLVSEDGSAGGS [r16_393_TrMRF]”, in that order: 3.93 ± 0.18 kcal/mol, 2.76 ± 0.15 kcal/mol and 3.58 ± 0.39 kcal/mol.
For “SAGGEKLETFPFKGDDDREVTLVRFEGEDRILLLVYDPDTDKVLLIAPDAIAEIDLKTGEAKVILKKSSAGG [r13_416_TrMRF]”, in that order: 1.66 ± 0.046 kcal/mol, 2.111 ± 0.016 kcal/mol and 1.98 ± 0.049 kcal/mol.
With “SAGGEKVVLEIVLPPELENLTPEELEALKNITLPNGFKITDIELVEENGRLVIRITVDSPEAAEALLKSAGG [r13_269_TrROS_Hall]”, the “folding stability dG unfold” value in series [1] was 2.04 ± 0.086 kcal/mol; in series [2], 2.23 ± 0.056 kcal/mol; in series [3], 2.19 ± 0.22 kcal/mol.
Taken in the same sequence, the figures for “SAGGELENLTVEELKALLEELFPDVEVKVTVEKLPEGYYRITVEIRVRLPNGETRRFELELVIRLEDSAGGS [r16_564_TrROS_Hall]” were 4.03 ± 0.23 kcal/mol, 5.36 ± 0.25 kcal/mol and 5.22 ± 0.28 kcal/mol.
Taken in the same sequence, the figures for “SAGGELPLSDITVESESPVTGGSWTVTLEVPSLGLRITVPAAELGAVAASTPGVATSLSPVSPAEPASAGGS [r16_61_JUSTAS]” were -0.251 ± 0.11 kcal/mol, 0.454 ± 0.093 kcal/mol and 0.225 ± 0.091 kcal/mol.
Taken in the same sequence, the figures for “SAGGELSEEFVKKLFENLGFEELEVVDLENKKVAYFRKGNYLVKVYDDGTIEIFDENGELVETINVDSAGGS [r8_147_TrMRF]” were 2.26 ± 0.12 kcal/mol, 3.89 ± 0.053 kcal/mol and 3.48 ± 0.19 kcal/mol.
For the sequence “SAGGELTEEQRKRLEEERRRREEEERRRQAAPVKVTVTVEFDPETGEVRVRVFNENGELVAEARFKVESAGG [r13_247_TrROS_Hall]”, the entries for the “folding stability dG unfold” value in series [1], in series [2] and in series [3] were 2.08 ± 0.092 kcal/mol, 3.77 ± 0.14 kcal/mol and 3.17 ± 0.19 kcal/mol, respectively.
Taken in the same sequence, the figures for “SAGGEPGALSSSTYTITAPAKSVSKTVTVSYNPADGTATITFPESGKTITVPAVSDEEVLALIKEILLSAGG [r13_439_JUSTAS]” were 0.697 ± 0.025 kcal/mol, -0.67 ± 0.31 kcal/mol and 0.322 ± 0.065 kcal/mol.
Taken in the same sequence, the figures for “SAGGEPLFGGSFSAEPYRTADGRLVYIVPEVTLPNGRKARAAVIYDPSTGRPIVVLYLGDKPIVLDASAGGS [r16_766_TrMRF]” were 1.889 ± 0.017 kcal/mol, 2.41 ± 0.039 kcal/mol and 2.24 ± 0.026 kcal/mol.
Taken in the same sequence, the figures for “SAGGEPVLVPVKGTFENPELGVKVEVEAYFFPEFDFALVNVKVTPYSPDGKPLEVEGTFVVSVSELLKSAGG [r13_807_TrMRF]” were 2.02 ± 0.082 kcal/mol, 3.16 ± 0.086 kcal/mol and 2.75 ± 0.12 kcal/mol.
As to “SAGGERERLLTLEVEIDVPPGVSPEEIAARLAALLPPGAEIERVEIRYDPATRKITVRVVIRLPEGLSAGGS [r16_396_TrROS_Hall]”, the “folding stability dG unfold” value stood at 3.59 ± 0.25 kcal/mol in series [1], 2.78 ± 0.093 kcal/mol in series [2] and 3.25 ± 0.29 kcal/mol in series [3].

Source of the values: the supplement of paper PMC12764529.
